Our source for the Kd and apparent Kd (screen) values is article PMC3433420.

Where “and” joins values, the source holds several entries; their conditions need not be identical. Equal entries are not always repeated. Where two headings read alike, the source gives them in different places.

The target in test [1] is RASA1 tandem SH2 domains (human). Briefly: peptide or protein array; SH2/PTB proteins spotted on aldehyde slides, rhodamine peptide titrated in buffer B (20 mM HEPES, 100 mM KCl, 0.1% Tween-20, 5 mM DTT, pH 7.8), 1 h at room temperature; replicate assays.
The target of test [2] is PIK3R1 tandem SH2 domains (human) (UniProt P27986). Described as above.
Chain of PIK3R1 tandem SH2 domains (human) (P27986 whole entry, the tested form may be a part): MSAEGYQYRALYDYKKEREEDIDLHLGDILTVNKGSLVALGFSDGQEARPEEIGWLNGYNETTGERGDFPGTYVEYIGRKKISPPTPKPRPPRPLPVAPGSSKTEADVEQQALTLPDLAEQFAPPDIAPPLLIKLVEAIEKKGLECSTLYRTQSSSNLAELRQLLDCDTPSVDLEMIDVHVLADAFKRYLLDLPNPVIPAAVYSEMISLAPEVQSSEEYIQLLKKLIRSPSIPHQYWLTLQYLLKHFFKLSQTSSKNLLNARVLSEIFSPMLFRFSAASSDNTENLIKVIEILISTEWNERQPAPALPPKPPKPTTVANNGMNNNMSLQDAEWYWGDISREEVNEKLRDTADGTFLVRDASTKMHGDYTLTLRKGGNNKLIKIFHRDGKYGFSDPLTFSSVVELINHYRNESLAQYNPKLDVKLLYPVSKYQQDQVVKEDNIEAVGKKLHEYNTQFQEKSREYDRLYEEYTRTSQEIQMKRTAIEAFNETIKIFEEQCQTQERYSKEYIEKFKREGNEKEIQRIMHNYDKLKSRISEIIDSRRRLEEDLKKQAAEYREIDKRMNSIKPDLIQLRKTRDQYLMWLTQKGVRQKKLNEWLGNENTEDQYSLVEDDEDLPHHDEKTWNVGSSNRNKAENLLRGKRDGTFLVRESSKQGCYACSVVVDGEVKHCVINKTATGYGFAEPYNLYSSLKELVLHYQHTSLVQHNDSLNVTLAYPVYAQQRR
Test [3] addresses PIK3R3 tandem SH2 domains (human). Described as above.
The target of a further test is HSH2D SH2 domain (human) (UniProt Q96JZ2). The description is as above.
Chain of HSH2D SH2 domain (human) (Q96JZ2 34-125): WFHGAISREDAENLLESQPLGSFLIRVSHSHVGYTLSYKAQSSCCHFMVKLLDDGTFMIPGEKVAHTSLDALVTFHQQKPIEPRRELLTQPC
A further test concerns the target NCK2 SH2 domain (human) (UniProt O43639). Described as above.
Test [4] has as its target PIK3R2 tandem SH2 domains (human) (UniProt O00459). The description is as above.
For the next test, the target named is ABL2 SH2 domain (human) (UniProt P42684). The description is as above.
Chain of ABL2 SH2 domain (human) (P42684 173-263): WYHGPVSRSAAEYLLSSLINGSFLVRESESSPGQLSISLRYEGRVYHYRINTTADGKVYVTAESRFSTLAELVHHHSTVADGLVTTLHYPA
The target of a further test is SRC SH2 domain (human) (UniProt P12931). The description is as above.
Test [5] addresses SH2D3A SH2 domain (human) (UniProt Q9BRG2). The description is as above.
A further test addresses ITK SH2 domain (human) (UniProt Q08881). The test is described as above.
A further test deals with VAV2 SH2 domain (human) (UniProt P52735). The description is as above.
Chain of VAV2 SH2 domain (human) (P52735 673-767): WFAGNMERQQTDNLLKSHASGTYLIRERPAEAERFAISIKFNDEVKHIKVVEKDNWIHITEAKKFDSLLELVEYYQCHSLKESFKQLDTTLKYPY
The target in test [6] is PLCG1 C-terminal SH2 domain (human). The description is as above.
For test [7], the target named is PLCG2 tandem SH2 domains (human). Described as above.
For the next test, the target named is SHF SH2 domain (human) (UniProt Q7M4L6). The test is described as above.
The target in test [8] is RASA1 N-terminal SH2 domain (human) (UniProt P20936). The test is described as above.
Chain of RASA1 N-terminal SH2 domain (human) (P20936 whole entry, the tested form may be a part): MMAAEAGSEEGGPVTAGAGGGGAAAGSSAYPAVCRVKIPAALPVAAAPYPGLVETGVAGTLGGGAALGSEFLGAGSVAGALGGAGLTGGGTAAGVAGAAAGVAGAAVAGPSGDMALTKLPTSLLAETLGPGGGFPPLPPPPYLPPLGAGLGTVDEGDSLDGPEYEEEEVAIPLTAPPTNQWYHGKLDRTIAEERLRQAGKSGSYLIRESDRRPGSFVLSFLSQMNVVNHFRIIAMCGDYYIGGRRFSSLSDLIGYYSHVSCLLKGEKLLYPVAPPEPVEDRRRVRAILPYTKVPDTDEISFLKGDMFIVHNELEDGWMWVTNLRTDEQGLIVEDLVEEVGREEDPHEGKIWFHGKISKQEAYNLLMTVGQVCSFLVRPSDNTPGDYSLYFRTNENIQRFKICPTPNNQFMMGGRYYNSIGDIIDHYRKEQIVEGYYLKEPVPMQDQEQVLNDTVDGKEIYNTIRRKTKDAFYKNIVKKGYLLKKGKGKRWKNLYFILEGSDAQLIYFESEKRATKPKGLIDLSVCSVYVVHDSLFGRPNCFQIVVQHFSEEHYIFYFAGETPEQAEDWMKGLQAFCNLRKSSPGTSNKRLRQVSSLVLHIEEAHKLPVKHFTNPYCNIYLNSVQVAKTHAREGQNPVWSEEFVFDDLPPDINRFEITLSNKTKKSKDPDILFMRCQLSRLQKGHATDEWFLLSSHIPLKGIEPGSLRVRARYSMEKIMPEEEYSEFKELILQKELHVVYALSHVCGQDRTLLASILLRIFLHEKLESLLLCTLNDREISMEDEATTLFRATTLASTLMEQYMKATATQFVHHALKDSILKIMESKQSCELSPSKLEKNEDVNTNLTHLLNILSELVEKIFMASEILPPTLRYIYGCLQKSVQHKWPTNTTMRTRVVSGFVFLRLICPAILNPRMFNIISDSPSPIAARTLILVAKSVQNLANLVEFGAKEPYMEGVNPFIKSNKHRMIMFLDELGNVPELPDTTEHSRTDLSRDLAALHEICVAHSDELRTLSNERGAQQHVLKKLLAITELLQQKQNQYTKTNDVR
Test [9] concerns the target SH2D1A SH2 domain (human) (UniProt O60880). Described as above.
The target of test [10] is ErbB3-pY1197 phosphopeptide, rhodamine-labelled (human). Description: fluorescence polarisation; saturation binding in solution; rhodamine-labeled peptide fixed at 10 nM, protein titrated 0.002-10 µM (twelve two-fold dilutions); 20 minutes at room temperature in the dark; assay buffer 20 mM HEPES, 100 mM KCl, 0.1% Tween-20, 5 mM DTT, pH 7.8; apparent KD; assay detection threshold of 20 µM. In general terms: Polarisation of emitted light reports the rotation of a fluorescent probe.

Test [11] deals with ErbB3-pY1260 phosphopeptide, rhodamine-labelled (human). The description is as above.
Test [12] concerns the target SHC1-PTB (Homo sapiens) (UniProt P29353). The settings on record: cited from earlier work.
For test [13] the target is unchanged. As to conditions: cited from earlier work. The source holds these as a separate data set.
The next test concerns the target PLCG2-NC (Homo sapiens) (UniProt P16885). The settings on record: cited from earlier work.
A further test addresses TEC (Homo sapiens) (UniProt P42680). The settings on record: cited from earlier work.
In a further test the target is CRKL (Homo sapiens) (UniProt P46109). As to conditions: cited from earlier work.
Chain of CRKL (Homo sapiens) (P46109 9-107): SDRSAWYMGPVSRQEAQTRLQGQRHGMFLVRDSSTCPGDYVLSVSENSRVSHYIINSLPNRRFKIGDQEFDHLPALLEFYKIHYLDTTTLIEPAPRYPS
The target of test [14] is PIK3R3-NC (Homo sapiens) (UniProt Q92569). The settings on record: cited from earlier work.
For another test, the target named is PIK3R1-NC (Homo sapiens) (UniProt P27986). As to conditions: cited from earlier work.
The next test addresses PIK3R1-N (Homo sapiens) (UniProt P27986). As to conditions: cited from earlier work.
In a further test the target is LYN (Homo sapiens) (UniProt P07948). The settings on record: cited from earlier work.
Another test addresses SYK-N (Homo sapiens) (UniProt P43405). As to conditions: cited from earlier work.
The target in the next test is PIK3R2-N (Homo sapiens) (UniProt O00459). As to conditions: cited from earlier work.
The next test addresses BLK (Homo sapiens) (UniProt P51451). As to conditions: cited from earlier work.
In another test the target is SYK-NC (Homo sapiens) (UniProt P43405). The settings on record: cited from earlier work.
The target of the next test is ABL2 (Homo sapiens) (UniProt P42684). As to conditions: cited from earlier work.
The target of test [15] is PIK3R3-NC (Homo sapiens) (UniProt Q92569). The settings on record: cited from earlier work. The source holds these as a separate data set.
The target in a further test is RASA1-N (Homo sapiens) (UniProt P20936). The settings on record: cited from earlier work.
Chain of RASA1-N (Homo sapiens) (P20936 176-446): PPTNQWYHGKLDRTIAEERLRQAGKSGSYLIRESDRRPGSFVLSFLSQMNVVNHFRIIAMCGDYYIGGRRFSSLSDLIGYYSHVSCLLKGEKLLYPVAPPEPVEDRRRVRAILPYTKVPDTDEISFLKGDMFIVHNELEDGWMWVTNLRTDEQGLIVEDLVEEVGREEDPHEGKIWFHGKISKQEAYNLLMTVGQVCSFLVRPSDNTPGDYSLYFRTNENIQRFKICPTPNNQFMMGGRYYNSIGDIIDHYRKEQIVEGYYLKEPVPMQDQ
A further test has as its target ITK (Homo sapiens) (UniProt Q08881). The settings on record: cited from earlier work.
For the next test, the target named is FGR (Homo sapiens) (UniProt P09769). The settings on record: cited from earlier work.
The next test addresses GRB7 (Homo sapiens) (UniProt Q14451). The settings on record: cited from earlier work.
Another test deals with GRB2 (Homo sapiens) (UniProt P62993). The settings on record: cited from earlier work.
A further test concerns the target SRC (Homo sapiens) (UniProt P12931). The settings on record: cited from earlier work.
In another test the target is SHC3 (Homo sapiens) (UniProt Q92529). As to conditions: cited from earlier work.
Chain of SHC3 (Homo sapiens) (Q92529 494-594): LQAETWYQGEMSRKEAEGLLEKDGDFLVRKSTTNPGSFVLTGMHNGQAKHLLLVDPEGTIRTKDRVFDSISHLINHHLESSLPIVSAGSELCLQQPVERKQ
The next test concerns the target YES1 (Homo sapiens) (UniProt P07947). As to conditions: cited from earlier work.
A further test has as its target SHC1 (Homo sapiens) (UniProt P29353). The settings on record: cited from earlier work.
In another test the target is RASA1-NC (Homo sapiens) (UniProt P20936). The settings on record: cited from earlier work.
Chain of RASA1-NC (Homo sapiens) (P20936 176-446): as the sequence (P20936 176-446) above
A further test addresses CRK (Homo sapiens) (UniProt P46108). The settings on record: cited from earlier work.

Chain of GRB7 SH2 domain (Q14451 431-527): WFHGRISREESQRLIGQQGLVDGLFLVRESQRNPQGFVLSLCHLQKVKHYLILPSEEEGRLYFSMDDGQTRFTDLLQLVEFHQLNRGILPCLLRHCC
Chain of SHC1-PTB (Homo sapiens) (P29353 483-583): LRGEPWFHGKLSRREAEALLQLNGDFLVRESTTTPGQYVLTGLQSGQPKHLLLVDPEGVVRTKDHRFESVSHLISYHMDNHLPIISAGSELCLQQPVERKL
Chain of TEC (Homo sapiens) (P42680 242-350): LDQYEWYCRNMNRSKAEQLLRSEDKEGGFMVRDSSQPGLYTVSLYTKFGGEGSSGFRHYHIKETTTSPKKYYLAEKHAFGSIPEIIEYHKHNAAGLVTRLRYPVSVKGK
Chain of YES1 (Homo sapiens) (P07947 153-260): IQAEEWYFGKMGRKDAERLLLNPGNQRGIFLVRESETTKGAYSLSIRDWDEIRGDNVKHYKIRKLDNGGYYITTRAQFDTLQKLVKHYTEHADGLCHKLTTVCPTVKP
Chain of PIK3R2 tandem SH2 domains (human) (O00459 whole entry, the tested form may be a part): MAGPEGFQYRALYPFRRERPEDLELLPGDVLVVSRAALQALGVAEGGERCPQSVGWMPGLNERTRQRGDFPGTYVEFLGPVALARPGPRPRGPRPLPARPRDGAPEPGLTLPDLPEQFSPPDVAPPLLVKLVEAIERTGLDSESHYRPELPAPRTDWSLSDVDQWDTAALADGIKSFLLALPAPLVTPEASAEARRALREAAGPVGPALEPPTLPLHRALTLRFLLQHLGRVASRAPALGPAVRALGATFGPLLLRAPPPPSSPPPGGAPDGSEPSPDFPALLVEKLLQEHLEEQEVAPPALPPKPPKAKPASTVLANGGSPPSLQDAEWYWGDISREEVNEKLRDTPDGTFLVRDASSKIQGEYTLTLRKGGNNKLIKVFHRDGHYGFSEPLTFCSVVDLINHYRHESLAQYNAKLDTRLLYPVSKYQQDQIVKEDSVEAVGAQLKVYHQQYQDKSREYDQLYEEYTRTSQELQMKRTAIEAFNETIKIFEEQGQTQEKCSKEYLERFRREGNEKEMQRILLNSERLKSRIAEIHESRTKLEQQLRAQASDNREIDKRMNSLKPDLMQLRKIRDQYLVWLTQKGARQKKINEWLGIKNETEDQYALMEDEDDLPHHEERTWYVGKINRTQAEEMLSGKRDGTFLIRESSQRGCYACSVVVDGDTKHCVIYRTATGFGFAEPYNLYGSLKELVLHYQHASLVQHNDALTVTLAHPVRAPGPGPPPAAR
Chain of BLK (Homo sapiens) (P51451 119-225): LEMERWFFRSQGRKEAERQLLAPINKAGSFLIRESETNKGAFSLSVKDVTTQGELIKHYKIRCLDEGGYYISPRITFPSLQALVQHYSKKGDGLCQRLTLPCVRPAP
Chain of ITK (Homo sapiens) (Q08881 234-343): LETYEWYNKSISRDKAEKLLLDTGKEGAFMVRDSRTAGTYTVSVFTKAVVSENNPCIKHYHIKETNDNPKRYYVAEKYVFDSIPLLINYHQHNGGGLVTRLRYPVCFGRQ
Chain of ITK SH2 domain (human) (Q08881 239-338): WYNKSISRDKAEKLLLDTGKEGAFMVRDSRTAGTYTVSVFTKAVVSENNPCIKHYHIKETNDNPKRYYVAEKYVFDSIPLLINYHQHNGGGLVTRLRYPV
Chain of SH2D1A SH2 domain (human) (O60880 6-104): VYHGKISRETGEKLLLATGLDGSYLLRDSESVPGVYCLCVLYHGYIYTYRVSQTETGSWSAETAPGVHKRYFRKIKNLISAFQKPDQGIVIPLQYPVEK
Chain of SH2D3A SH2 domain (human) (Q9BRG2 15-114): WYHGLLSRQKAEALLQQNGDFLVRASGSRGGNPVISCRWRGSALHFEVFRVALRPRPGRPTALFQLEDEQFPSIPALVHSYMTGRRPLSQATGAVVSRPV
Chain of SHC1 (Homo sapiens) (P29353 483-583): as the sequence (P29353 483-583) above

For “ErbB4 pY1202 phosphopeptide (18-mer), rhodamine-labelled, for protein microarrays”, the Kd in test [1] is 8560 nM; in [2], 167 nM and 544 nM; in [3], 1720 nM and 1180 nM; with HSH2D SH2 domain (human), 967 nM; in the test with NCK2 SH2 domain (human) it was 10100 nM; in test [4] it was 653 nM. Besides, the Kd in the test with ABL2 SH2 domain (human) was 997 nM and 965 nM; in the test with SRC SH2 domain (human), 399 nM; in test [5], 1000 nM; with ITK SH2 domain (human) it was 723 nM; with VAV2 SH2 domain (human), 9500 nM; in test [6] it was 1260 nM. Moreover, the Kd in [7] is 408 nM and 605 nM and 1530 nM; with SHF SH2 domain (human), 11900 nM; in test [8], 662 nM; in test [9], 30900 nM.

As to “GRB7 SH2 domain (from UniProt Q14451 431-527) (domain or fragment)”, the Kd in [10] and in test [11] was < 100 nM each time.

With …pYLRVAPQSd, the apparent Kd (screen) in the test with SHC1-PTB (Homo sapiens) [12] is 317 nM; in the test with SHC1-PTB (Homo sapiens) [13], 337 nM; with PLCG2-NC (Homo sapiens) it was 500 nM; with TEC (Homo sapiens), 480 nM; in the test with CRKL (Homo sapiens), 1340 nM; in the test with PIK3R3-NC (Homo sapiens) [14], 1110 nM. Also, the apparent Kd (screen) in the test with PIK3R1-NC (Homo sapiens) is 500 nM; with PIK3R1-N (Homo sapiens), 500 nM; in the test with LYN (Homo sapiens), 171 nM; with SYK-N (Homo sapiens), 294 nM; with PIK3R2-N (Homo sapiens), 500 nM; with BLK (Homo sapiens), 500 nM. For the same substance, the apparent Kd (screen) with SYK-NC (Homo sapiens) is 380 nM; with ABL2 (Homo sapiens), 214 nM; with PIK3R3-NC (Homo sapiens) [15], 805 nM; with RASA1-N (Homo sapiens) it was 708 nM; with ITK (Homo sapiens) it was 500 nM; with FGR (Homo sapiens), 618 nM. In addition, the apparent Kd (screen) with GRB7 (Homo sapiens) is 500 nM; with GRB2 (Homo sapiens), 415 nM; with SRC (Homo sapiens), 381 nM; with SHC3 (Homo sapiens) it was 1030 nM; in the test with YES1 (Homo sapiens), 127 nM; with SHC1 (Homo sapiens), 777 nM. The apparent Kd (screen) is 500 nM with RASA1-NC (Homo sapiens) and 1070 nM with CRK (Homo sapiens).
